Test results as given in article PMC2809091.

Tests used:
[1] = biological target: F137L/E363G variant of S. pyogenes enolase (S. pyogenes) (UniProt P69949); assay: AUC; sedimentation velocity, 20°C; pH 7.4, 50 mM Tris with 1 mM Mg(OAc)2 and 0.1 mM EDTA
[2] = biological target: F137L/E363G variant of S. pyogenes enolase (S. pyogenes) (UniProt P69949); assay: AUC; sedimentation velocity; 19.4 µM enolase incubated in 0.2 M NaClO4, then dialysed 24 hours against buffer (reassociation)
[3] = biological target: F137L/E363G variant of S. pyogenes enolase (S. pyogenes) (UniProt P69949); assay: AUC; sedimentation velocity, 20°C; pH 9.0, 50 mM Tris or glycine with 1 mM Mg(OAc)2 and 0.1 mM EDTA; octamer to monomers
[4] = biological target: F137L/E363G variant of S. pyogenes enolase (S. pyogenes) (UniProt P69949); assay: AUC; sedimentation velocity, 15°C; 2.7 µM enolase incubated 18 h at 15°C in TME with NaClO4 (up to 0.4 M); octamer to monomers
[5] = biological target: F137L/E363G variant of S. pyogenes enolase (S. pyogenes) (UniProt P69949); assay: AUC; sedimentation velocity; 22.7 µM enolase in TME with varying NaClO4; octamer to monomers
[6] = biological target: F137L/E363G variant of S. pyogenes enolase (S. pyogenes) (UniProt P69949); assay: AUC; sedimentation velocity; 19.4 µM enolase after incubation in 0.2 M NaClO4; octamer to monomers

## F137L/E363G variant of S. pyogenes enolase (from UniProt P69949 1-435) (enzyme)
[1]
  percent octameric: 88%
  stoichiometry N: 8
[2]
  percent octameric after dialysis against buffer: 77%
[3]
  percent monomeric: 54%
  percent octameric: 39%
[4]
  NaClO4 concentration at 50% dissociation: 0.06 M
[5]
  NaClO4 concentration at 50% dissociation: 0.12 M
[6]
  percent octameric in 0.2 M NaClO4: 21%
